Laboratory results reported in the Human Domainome abundance scans (Beltran et al. 2025).
± gives the uncertainty stated by the source.

B1: Protein S100-G, residues 1 to 79; numbered along this chain, P02633 (parent)
chain: MSAKKSPEELKGIFEKYAAKEGDPNQLSKEELKLLLQTEFPSLLKGPSTLDELFEELDKNGDGEVSFEEFQVLVKKISQ

Variants of: B1
Experiment: abundance fitness (aPCA) (normalised: wild type 0, dead -1); higher = more abundant; growth selection in yeast, the domain comes from the species named
Settings: Bos taurus

Abundance fitness: each site, then its substitutions
D23: W -0.254 ± 0.083; F -0.079 ± 0.081; K -0.157 ± 0.082; G -0.091 ± 0.078; V -0.065 ± 0.068; S -0.036 ± 0.067; R -0.043 ± 0.069; H -0.074 ± 0.085; P -0.139 ± 0.083; M -0.104 ± 0.076; T 0.005 ± 0.073; Y -0.081 ± 0.074; E -0.053 ± 0.088; Q -0.046 ± 0.078; L -0.034 ± 0.062; N -0.013 ± 0.088; A -0.009 ± 0.069; C -0.064 ± 0.089
G22: V -0.29 ± 0.075; C -0.264 ± 0.1; L -0.319 ± 0.065; P -0.19 ± 0.075; M -0.19 ± 0.089; F -0.431 ± 0.091; R -0.013 ± 0.068; W -0.547 ± 0.087; Y -0.204 ± 0.086; N -0.147 ± 0.092; D -0.167 ± 0.095; T -0.22 ± 0.072; Q -0.231 ± 0.078; E -0.17 ± 0.094; H -0.103 ± 0.079; I -0.291 ± 0.096; K -0.037 ± 0.084; S -0.114 ± 0.064
K11: A -0.157 ± 0.081; P -0.373 ± 0.068; M -0.151 ± 0.077; G -0.176 ± 0.11; Q -0.04 ± 0.078; E -0.063 ± 0.1; F 0.023 ± 0.08; Y -0.124 ± 0.079; D -0.369 ± 0.1; T -0.197 ± 0.064; C -0.202 ± 0.099; R -0.185 ± 0.075; H -0.14 ± 0.078; W -0.294 ± 0.1; L -0.096 ± 0.06; I -0.002 ± 0.078
N25: M -0.083 ± 0.081; D -0.052 ± 0.098; K -0.059 ± 0.086; L 0.081 ± 0.065; H 0.02 ± 0.086; A 0.014 ± 0.072; E -0.012 ± 0.092; V -0.066 ± 0.07; R -0.069 ± 0.069; Y -0.067 ± 0.093; P -0.077 ± 0.08; W -0.303 ± 0.098; I 0.024 ± 0.086; C -0.014 ± 0.097; F 0.027 ± 0.085; T -0.006 ± 0.076; S -0.027 ± 0.07; Q -0.079 ± 0.09; G -0.021 ± 0.076
E21: I -0.027 ± 0.081; N 0.039 ± 0.081; H -0.014 ± 0.081; P -0.35 ± 0.073; R -0.104 ± 0.063; Y -0.058 ± 0.087; C 0.011 ± 0.092; W -0.236 ± 0.082; T -0.082 ± 0.071; G -0.034 ± 0.08; Q -0.031 ± 0.078; D 0.074 ± 0.089; S -0.085 ± 0.064; V -0.057 ± 0.07; A 0.003 ± 0.074; F 0.085 ± 0.084
K20: A -0.119 ± 0.071; S -0.088 ± 0.065; N -0.012 ± 0.079; Q 0.04 ± 0.09; I -0.098 ± 0.085; F -0.159 ± 0.083; Y -0.112 ± 0.086; V -0.077 ± 0.075; M 0.053 ± 0.081; R 0.012 ± 0.066; D -0.05 ± 0.1; L -0.067 ± 0.064; W -0.181 ± 0.084; C -0.263 ± 0.087; G -0.01 ± 0.076; E -0.119 ± 0.093
L10: V -0.081 ± 0.074; M 0.044 ± 0.085; D -0.322 ± 0.1; T -0.174 ± 0.072; Y -0.038 ± 0.081; W -0.076 ± 0.085; S -0.221 ± 0.065; K -0.401 ± 0.088; I -0.039 ± 0.088; A -0.09 ± 0.083; H -0.155 ± 0.08; E -0.202 ± 0.097; C -0.536 ± 0.1; R -0.488 ± 0.071; Q -0.104 ± 0.077; F -0.048 ± 0.075; N -0.31 ± 0.09; P -0.383 ± 0.077
E8: R -0.048 ± 0.068; D -0.125 ± 0.094; Y -0.101 ± 0.081; P -0.163 ± 0.074; L -0.029 ± 0.062; M 0.014 ± 0.08; G -0.049 ± 0.082; I -0.029 ± 0.079; K -0.004 ± 0.087; W -0.243 ± 0.089; N -0.11 ± 0.089; V -0.051 ± 0.074; H -0.148 ± 0.084; S -0.106 ± 0.063; C -0.361 ± 0.086; A -0.054 ± 0.076; F -0.079 ± 0.074; T -0.046 ± 0.075; Q 0.033 ± 0.089
E15: N -0.042 ± 0.083; K -0.031 ± 0.087; P -0.722 ± 0.08; M 0.058 ± 0.082; D -0.047 ± 0.093; T 0.065 ± 0.071; W -0.048 ± 0.093; C -0.152 ± 0.093; Y 0.077 ± 0.086; G -0.062 ± 0.072; H 0.018 ± 0.088; F 0.016 ± 0.079; A -0.039 ± 0.069; Q 0.024 ± 0.084; V -0.044 ± 0.071; I 0.078 ± 0.081; S -0.009 ± 0.065
K16: L -0.031 ± 0.062; T -0.087 ± 0.077; H -0.101 ± 0.093; P -0.34 ± 0.076; V -0.179 ± 0.067; A -0.058 ± 0.069; Q -0.122 ± 0.079; S -0.042 ± 0.067; M -0.145 ± 0.08; C -0.12 ± 0.086; G -0.213 ± 0.07; W -0.176 ± 0.079; I -0.184 ± 0.091; N -0.07 ± 0.093; E -0.105 ± 0.085; D -0.18 ± 0.091; R -0.082 ± 0.064; F -0.087 ± 0.087; Y -0.102 ± 0.092
P7: S 0.02 ± 0.063; L 0.013 ± 0.062; R -0.079 ± 0.066; Y 0.063 ± 0.075; N -0.056 ± 0.072; H -0.067 ± 0.076; T 0.066 ± 0.07; W -0.09 ± 0.09; V -0.058 ± 0.073; K -0.062 ± 0.076; M 0.058 ± 0.078; F -0.066 ± 0.075; G -0.121 ± 0.082
F14: L -0.73 ± 0.062; M -0.589 ± 0.084; K -1.18 ± 0.089; Y 0.028 ± 0.086; G -1.53 ± 0.086; W -0.088 ± 0.083; P -1.33 ± 0.079; E -1.32 ± 0.1; N -1.2 ± 0.1; H -0.971 ± 0.093; R -1.37 ± 0.07; S -1.22 ± 0.071; D -1.23 ± 0.099; Q -1.29 ± 0.086; C -1 ± 0.095; T -1.33 ± 0.075; A -0.98 ± 0.072; I -0.504 ± 0.086; V -0.729 ± 0.075
P24: A -0.093 ± 0.069; H -0.031 ± 0.094; V -0.009 ± 0.071; E -0.061 ± 0.086; L -0.113 ± 0.063; D -0.125 ± 0.086; C 0.029 ± 0.087; Q 0.019 ± 0.089; I 0.024 ± 0.09; G -0.031 ± 0.069; S 0.06 ± 0.065; M -0.066 ± 0.082; W -0.219 ± 0.084; R -0.007 ± 0.066; Y -0.075 ± 0.087; F -0.197 ± 0.087; K 0.046 ± 0.082
A18: K -0.224 ± 0.085; Q -0.248 ± 0.079; F -0.367 ± 0.088; I -0.248 ± 0.085; H -0.195 ± 0.08; N -0.362 ± 0.08; G -0.077 ± 0.08; W -0.516 ± 0.093; R -0.161 ± 0.066; M -0.161 ± 0.092; V -0.115 ± 0.072; D -0.846 ± 0.09; T -0.15 ± 0.07; P -0.968 ± 0.073; S -0.055 ± 0.063; L -0.242 ± 0.064; Y -0.424 ± 0.085; E -0.904 ± 0.099
G12: V 0.031 ± 0.072; I 0.088 ± 0.099; P -0.048 ± 0.068; W -0.082 ± 0.087; N 0.001 ± 0.096; H 0.064 ± 0.089; F -0.01 ± 0.087; E -0.165 ± 0.091; R 0.046 ± 0.076; D 0.067 ± 0.12; K 0.029 ± 0.083; L -0.009 ± 0.059; T 0.068 ± 0.068; M -0.002 ± 0.073; Y -0.045 ± 0.094; Q -0.059 ± 0.077
E9: K -0.061 ± 0.096; N -0.03 ± 0.086; A -0.132 ± 0.083; C -0.177 ± 0.091; Y -0.023 ± 0.074; R -0.179 ± 0.075; H -0.094 ± 0.078; L -0.073 ± 0.064; M -0.035 ± 0.081; I -0.111 ± 0.081; F -0.128 ± 0.083; G -0.108 ± 0.092; T -0.073 ± 0.075; V -0.062 ± 0.084; S -0.073 ± 0.065; P -0.211 ± 0.073; Q 0.055 ± 0.085; D 0.063 ± 0.11
Q26: C -0.082 ± 0.089; D -0.155 ± 0.092; E 0.012 ± 0.09; F -0.043 ± 0.088; A -0.062 ± 0.07
A19: R -0.073 ± 0.069; N -0.017 ± 0.081; K 0.048 ± 0.09; C -0.009 ± 0.08; F -0.057 ± 0.077; P -0.132 ± 0.074; I -0.018 ± 0.081; Q 0.028 ± 0.085; D -0.034 ± 0.088; W -0.111 ± 0.085; L 0.02 ± 0.064; S 0.007 ± 0.065; H -0.013 ± 0.083; M -0.015 ± 0.086; T 0.143 ± 0.074; G 0.058 ± 0.078; V -0.062 ± 0.071
Y17: S -0.45 ± 0.063; M -0.168 ± 0.083; P -1.25 ± 0.086; H -0.067 ± 0.076; C -0.295 ± 0.081; L -0.332 ± 0.063; T -0.444 ± 0.077; A -0.129 ± 0.074; G -0.521 ± 0.073; N -0.433 ± 0.079; R -0.429 ± 0.066; E -0.425 ± 0.084; V -0.345 ± 0.071; W -0.017 ± 0.082; Q -0.379 ± 0.081; K -0.519 ± 0.08; D -1.1 ± 0.088; F -0.008 ± 0.082
I13: F -0.201 ± 0.081; H -0.287 ± 0.08; G -0.959 ± 0.079; S -0.26 ± 0.068; D -0.436 ± 0.097; K -0.173 ± 0.092; N -0.631 ± 0.084; L -0.03 ± 0.066; T -0.17 ± 0.079; V -0.123 ± 0.071; R -0.409 ± 0.068; C -0.093 ± 0.088; M 0.053 ± 0.091; W -0.231 ± 0.089; Q -0.219 ± 0.083; P -0.424 ± 0.08; E -0.386 ± 0.092
